Assay results published in article PMC5762833, “Direct Molecular Fishing of New Protein Partners for Human Thromboxane Synthase” (Acta Naturae, 2017).

T1: Human thromboxane synthase (TBXAS1) (human, UniProt P24557 1-533)
T1 construct: thromboxane synthase (TBXAS1, CYP5A1), human, recombinant; Covalently immobilised on CNBr-Sepharose 4B (fishing) or on a CM5 chip (SPR); also used as analyte; also called CYP5A1
T1 sequence (looked up): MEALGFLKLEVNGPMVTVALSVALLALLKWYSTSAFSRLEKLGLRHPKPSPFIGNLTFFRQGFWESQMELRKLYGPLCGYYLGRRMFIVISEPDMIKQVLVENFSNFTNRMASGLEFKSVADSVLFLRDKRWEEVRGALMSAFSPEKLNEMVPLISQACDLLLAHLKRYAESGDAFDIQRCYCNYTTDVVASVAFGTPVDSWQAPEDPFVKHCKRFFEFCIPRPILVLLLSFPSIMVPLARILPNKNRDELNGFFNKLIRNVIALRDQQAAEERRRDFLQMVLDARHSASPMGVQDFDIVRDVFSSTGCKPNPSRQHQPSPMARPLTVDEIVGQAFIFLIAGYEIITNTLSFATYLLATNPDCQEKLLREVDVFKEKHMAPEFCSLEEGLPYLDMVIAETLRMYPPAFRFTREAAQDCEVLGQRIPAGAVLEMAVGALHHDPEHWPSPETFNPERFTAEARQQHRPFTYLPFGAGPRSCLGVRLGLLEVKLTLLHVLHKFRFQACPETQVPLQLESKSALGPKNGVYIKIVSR


Tests used:
[1] = molecular target: T1, Human thromboxane synthase (TBXAS1); test: SPR; Biacore 3000; TBXAS1 amine-coupled to a CM5 chip (about 7,500 RU); analytes 50 nM to 5 μM injected for 10 min at 5 μL/min; control channel without protein; conditions: both partners purified
[2] = molecular target: T1, Human thromboxane synthase (TBXAS1); test: SPR; as a2, with isatin added to the analyte samples at a final concentration of 100 μM and incubated for 15 min; conditions: both partners purified

Kd [1] | fold difference of koff against TBXAS1•CYP11B2 (CYP2E1 the slower) [1] | fold difference of kon against TBXAS1•CYP11B2 (CYP2E1 the slower) [1] | fold decrease in koff with 100 μM isatin against no isatin [2] | fold increase in affinity with 100 μM isatin against no isatin [2] | fold increase in kon with 100 μM isatin against no isatin [2] | Binder
690 nM | – | – | – | – | – | aldosterone synthase (CYP11B2) (enzyme, UniProt P19099 25-503, looked up, aldosterone synthase (CYP11B2), mitochondrial cytochrome P450, recombinant) GTRAARAPRTVLPFEAMPQHPGNRWLRLLQIWREQGYEHLHLEMHQTFQELGPIFRYNLGGPRMVCVMLPEDVEKLQQVDSLHPCRMILEPWVAYRQHRGHKCGVFLLNGPEWRFNRLRLNPDVLSPKAVQRFLPMVDAVARDFSQALKKKVLQNARGSLTLDVQPSIFHYTIEASNLALFGERLGLVGHSPSSASLNFLHALEVMFKSTVQLMFMPRSLSRWISPKVWKEHFEAWDCIFQYGDNCIQKIYQELAFNRPQHYTGIVAELLLKAELSLEAIKANSMELTAGSVDTTAFPLLMTLFELARNPDVQQILRQESLAAAASISEHPQKATTELPLLRAALKETLRLYPVGLFLERVVSSDLVLQNYHIPAGTLVQVFLYSLGRNAALFPRPERYNPQRWLDIRGSGRNFHHVPFGFGMRQCLGRRLAEAEMLLLLHHVLKHFLVETLTQEDIKMVYSFILRPGTSPLLTFRAIN
430 nM | 15 fold | 10 fold | 2.5 fold | 5 fold | 2 fold | 4-nitrophenol-2-hydroxylase (CYP2E1), recombinant (enzyme, UniProt P05181 1-493, looked up, cytochrome P450 2E1, recombinant; also called cytochrome P450 2E1) MSALGVTVALLVWAAFLLLVSMWRQVHSSWNLPPGPFPLPIIGNLFQLELKNIPKSFTRLAQRFGPVFTLYVGSQRMVVMHGYKAVKEALLDYKDEFSGRGDLPAFHAHRDRGIIFNNGPTWKDIRRFSLTTLRNYGMGKQGNESRIQREAHFLLEALRKTQGQPFDPTFLIGCAPCNVIADILFRKHFDYNDEKFLRLMYLFNENFHLLSTPWLQLYNNFPSFLHYLPGSHRKVIKNVAEVKEYVSERVKEHHQSLDPNCPRDLTDCLLVEMEKEKHSAERLYTMDGITVTVADLFFAGTETTSTTLRYGLLILMKYPEIEEKLHEEIDRVIGPSRIPAIKDRQEMPYMDAVVHEIQRFITLVPSNLPHEATRDTIFRGYLIPKGTVVVPTLDSVLYDNQEFPDPEKFKPEHFLNENGKFKYSDYFKPFSTGKRVCAGEGLARMELFLLLCAILQHFNLKPLVDPKDIDLSPIHIGFGCIPPRYKLCVIPRS
